Residues, ends and D or L forms follow the SMILES beside them.

Usually Kd stands for the concentration at which binding is half-saturated.

For experiment [1], the target named is LatB-bound G-actin (rabbit skeletal muscle actin) (Oryctolagus cuniculus, UniProt P68135). Description: Fluorescence anisotropy assay of RPEL^MAL:G-actin interaction. The experiment is classed as binding. Particulars: ratio of Kd values from fluorescence anisotropy.
The target in experiment [2] is FITC-conjugated RPEL1^MAL peptide, MAL(67–98), wild type (mouse). Description: fluorescence polarisation. Background: In fluorescence polarisation assays a small probe gives low polarisation when free and higher when bound to something large.
Experiment [3] has as its target FITC-conjugated RPEL1^MAL peptide, alanine at R82 (the position of the conserved RPEL proline) (mouse). Description: fluorescence polarisation.
For experiment [4], the target named is FITC-conjugated RPEL3^MAL peptide, MAL(155–186), wild type (mouse). Description: fluorescence polarisation.
Experiment [5] concerns the target FITC-conjugated RPEL1^MAL peptide, R81A (mouse). Description: fluorescence polarisation.
In experiment [6] the target is FITC-conjugated 'RPEL2-like' RPEL3^MAL peptide, G171/P172 replaced by E and R (mouse). Description: fluorescence polarisation.
The target in experiment [7] is FITC-conjugated RPEL1^MAL peptide, R81 and R82 both to alanine (mouse). Description: fluorescence polarisation.
Experiment [8] deals with FITC-conjugated RPEL1^MAL peptide, α2^AAA mutant (mouse). Description: fluorescence polarisation.
The target in experiment [9] is FITC-conjugated RPEL2^MAL peptide, E130A (mouse). Description: fluorescence polarisation.
The target in experiment [10] is FITC-conjugated RPEL1^MAL peptide, E86A (mouse). Description: fluorescence polarisation.
The target in experiment [11] is FITC-conjugated RPEL2^MAL peptide, MAL(111–142), wild type (mouse). Description: fluorescence polarisation.
The target in experiment [12] is FITC-conjugated RPEL2^MAL peptide, P126A (mouse). Description: fluorescence polarisation.
The target in experiment [13] is FITC-conjugated RPEL2^MAL peptide, P126 replaced with arginine (mouse). Description: fluorescence polarisation.

With `CC[C@H](C)[C@H](NC(=O)CNC(=O)[C@H](CCC(N)=O)NC(=O)[C@H](CO)NC(=O)[C@@H](NC(=O)[C@H](CC(C)C)NC(=O)[C@H](CCC(=O)O)NC(=O)[C@H](CCC(=O)O)NC(=O)[C@H](CCCNC(=N)N)NC(=O)[C@@H](NC(=O)[C@H](C)NC(=O)[C@H](CCCNC(=N)N)NC(=O)[C@H](CCC(N)=O)NC(=O)[C@H](CCC(N)=O)NC(=O)[C@H](CC(C)C)NC(=O)[C@H](CCCCN)NC(=O)[C@H](CC(C)C)NC(=O)[C@H](CCC(N)=O)NC(=O)[C@H](CC(C)C)NC(=O)[C@@H](NC(=O)[C@H](CC(N)=O)NC(=O)[C@H](CCCCN)NC(=O)[C@H](CCCNC(=N)N)NC(=O)[C@H](CCC(=O)O)NC(=O)[C@H](CO)NC(=O)[C@H](CC(C)C)NC(=S)Nc1ccc2c(c1)C(=O)OC21c2ccc(O)cc2Oc2cc(O)ccc21)C(C)C)[C@@H](C)O)C(C)C)C(=O)N[C@@H](CCSC)C(=O)N1CCC[C@H]1C(=O)N1CCC[C@H]1C(=O)N[C@@H](CC(C)C)C(=O)N[C@@H](CCCCN)C(=O)N[C@@H](CO)C(=O)O` [RPEL1 R82A] (HELM PEPTIDE1{[O=C1OC2(c3ccc(O)cc3Oc3cc(O)ccc32)c2ccc(NC(=S)[*:2])cc21].L.S.E.R.K.N.V.L.Q.L.K.L.Q.Q.R.A.T.R.E.E.L.V.S.Q.G.I.M.P.P.L.K.S}$$$$V2.0; C-terminus assumed), the “Fold reduction of actin-binding affinity relative to the wild-type peptide” value in experiment [1] stood at 3.5 fold.

For the molecule `CC[C@H](C)[C@H](NC(=O)[C@H](CCCCN)NC(=O)[C@H](CCCNC(=N)N)NC(=O)[C@H](CCCCN)NC(=O)[C@H](CC(C)C)NC(=O)[C@H](Cc1ccc(O)cc1)NC(=O)[C@H](CC(=O)O)NC(=O)[C@H](CCC(=O)O)NC(=O)[C@@H](NC(=O)[C@H](CCCNC(=N)N)NC(=O)[C@H](C)NC(=O)[C@H](CCCNC(=N)N)NC(=S)Nc1ccc2c(c1)C(=O)OC21c2ccc(O)cc2Oc2cc(O)ccc21)[C@@H](C)O)C(=O)N[C@@H](CCCNC(=N)N)C(=O)N[C@@H](CO)C(=O)N[C@@H](CCCNC(=N)N)C(=O)N[C@@H](C)C(=O)N[C@@H](CCC(=O)O)C(=O)N[C@@H](CCCNC(=N)N)C(=O)N[C@@H](C)C(=O)N[C@@H](CCC(=O)O)C(=O)N[C@@H](CC(C)C)C(=O)N[C@H](C(=O)N[C@@H](CCCNC(=N)N)C(=O)N[C@@H](CCSC)C(=O)N[C@@H](Cc1c[nH]cn1)C(=O)N[C@H](C(=O)N[C@@H](CC(C)C)C(=O)N[C@@H](CCC(=O)O)C(=O)N[C@@H](CCC(=O)O)C(=O)N[C@H](C(=O)N[C@@H](CO)C(=O)N[C@@H](C)C(=O)O)[C@@H](C)O)[C@@H](C)CC)C(C)C` [RPEL2 P126A] (HELM PEPTIDE1{[O=C1OC2(c3ccc(O)cc3Oc3cc(O)ccc32)c2ccc(NC(=S)[*:2])cc21].R.A.R.T.E.D.Y.L.K.R.K.I.R.S.R.A.E.R.A.E.L.V.R.M.H.I.L.E.E.T.S.A}$$$$V2.0; C-terminus assumed), the “Fold reduction of actin-binding affinity relative to the wild-type peptide” value in experiment [1] came out at 16 fold.

Regarding “rabbit skeletal muscle G-actin bound to latrunculin B (LatB) and ATP (from UniProt P68135 1-377) (natural protein)”, the dissociation constant Kd in experiment [2] was 1 µM; in [3], 3.7 µM; in experiment [4], 28.9 µM; in [5], 17.7 µM; in experiment [6], 4.8 µM; in experiment [7] it was 44.5 µM. Moreover, the equilibrium dissociation constant (Kd) was determined as 24 µM in [8]; 1.9 µM in experiment [9]; 2.7 µM in experiment [10]; 1.9 µM in experiment [11]; 30.8 µM in experiment [12]; 19.5 µM in [13].

The values are drawn from publication PMC2583105 (The EMBO Journal, 2008).
